Values joined by “and” are separate entries in the source; they are usually repeats but may differ in a detail not shown here. Equal values may be shown once.
Target: N-terminal domain of mouse gasdermin-A3 released by TEV cleavage (mGSDMA3^Nterm) (mouse) (UniProt Q5Y4Y6)
Experiment: atomic force microscopy; supported lipid membranes (E. coli polar lipid extract) on mica incubated 3 h at 37 °C with 1.5 µM mGSDMA3 pre-cleaved with 0.4 µM TEV, rinsed, imaged by contact mode or FD-based AFM at room temperature in 50 mM NaCl, 0.1 mM EDTA, 0.1 mM TCEP, 20 mM Hepes, pH 7.4; subunits of ring-shaped oligomers counted from rotational power spectra

N-terminal domain of mouse gasdermin-A3 released by TEV cleavage (mGSDMA3^Nterm) (from UniProt Q5Y4Y6 1-237) (domain or fragment)
stoichiometry N: 18 to 36 (2×) and 30

Reference: PMC9095878
